Two molecules from paper PMC5340911 can be followed below.

In general, Kd refers to the free concentration of one partner at which half of the binding sites on the other are occupied at equilibrium, for simple one-to-one binding.

Common to all, as to assay: filter binding
One data set concerns the target T1, PABPN1 (His-PABPN1) (bovine, UniProt Q28165 1-306).
T1 sequence: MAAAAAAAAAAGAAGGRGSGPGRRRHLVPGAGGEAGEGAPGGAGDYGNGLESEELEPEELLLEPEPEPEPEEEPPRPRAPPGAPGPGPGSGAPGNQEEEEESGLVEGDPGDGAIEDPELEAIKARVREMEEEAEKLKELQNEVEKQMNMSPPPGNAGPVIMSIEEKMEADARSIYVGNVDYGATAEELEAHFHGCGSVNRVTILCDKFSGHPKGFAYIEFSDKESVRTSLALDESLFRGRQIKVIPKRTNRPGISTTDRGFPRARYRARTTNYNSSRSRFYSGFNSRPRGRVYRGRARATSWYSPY

The target of data set [1] is T2, Pab2 (nuclear poly(A) binding protein) (Schizosaccharomyces pombe, UniProt O14327 1-166).
T2 sequence: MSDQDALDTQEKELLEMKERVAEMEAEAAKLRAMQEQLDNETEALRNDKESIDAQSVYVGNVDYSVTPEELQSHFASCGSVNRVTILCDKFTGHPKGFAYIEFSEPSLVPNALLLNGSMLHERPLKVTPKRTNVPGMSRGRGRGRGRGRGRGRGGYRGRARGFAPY

Data set [2] deals with T2, Pab2 (nuclear poly(A) binding protein). The source holds these as a separate data set.

B1: A100 (ssRNA)
RNA: AAAAAAAAAAAAAAAAAAAAAAAAAAAAAAAAAAAAAAAAAAAAAAAAAAAAAAAAAAAAAAAAAAAAAAAAAAAAAAAAAAAAAAAAAAAAAAAAAAAA
B1: the binding result (in the data set with PABPN1 (His-PABPN1); in data set [1]) was “binds” in each case.

B2: A14 (ssRNA)
RNA: AAAAAAAAAAAAAA
Molecule B2 had a Kd in data set [2] of 5.3 ± 1.1 nM.
